Assay results published in the supplement of paper PMC10126150.
± gives the standard deviation of the averaged measurements.

system: ATP; assay: switch fluorescence ratio, 500 uM ATP over buffer (Cy3 cluster intensity, sum of 5 cycles each) (fold (ratio)); higher = stronger signal-on switching upon ATP binding; sequences stand for … in TCGTCGGCAGCGTCAGATGTGTATAAGAGACAGTTTTTTTTTTTTTTTTTTTTTTTTT…TC; conditions: aptamer strand: ATP DNA aptamer (quencher-CACCTGGGGGAGTATTGCGGAGGAAGG + anchor), 100 nM annealed; ATP concentration: 500 uM
Method in brief: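 Imaging in selection buffer was followed by imaging after 15 min with 500 uM ATP at 22 °C, for Cy3-labelled switching-strand clusters annealed to 100 nM quencher-labelled ATP aptamer on a modified Illumina MiSeq flow-cell. Five of these buffer/ATP cycles ran, separated by NaOH stripping and re-annealing. The fluorescence ratio per cluster is summed target-cycle over summed buffer-cycle Cy3 intensity, averaged per switch-domain sequence; clusters outside 100-1000 RFU were removed.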
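Further: ATP exposure 15 min at 22 °C before imaging.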

| Sequence | switch fluorescence ratio |
| --- | --- |
| CAGTATAAAG | 0.9738 ± 0.0068 |
| CAGTATCTGA | 1 ± 0.0047 |
| CAGTCATGCC | 0.971 ± 0.058 |
| CAGTCGGAGA | 1.02 ± 0.037 |
| CAGTCTGCTC | 1.05 ± 0.03 |
| CAGTCTGCTG | 1.0037 ± 0.00071 |
| CAGTCTGGTA | 0.9966 ± 0.0042 |
| CAGTGACTTT | 1.022 ± 0.0014 |
| CAGTGCATC | 0.972 ± 0.053 |
| CAGTGCGTTT | 1.01 ± 0.013 |
| CAGTGGATAC | 1.2218 ± 0.00027 |
| CAGTGGGAAA | 1.01 ± 0.029 |
| CAGTGGTGGG | 1.01 ± 0.04 |
| CAGTGTAGGG | 1.017 ± 0.01 |
| CAGTGTGCAG | 0.9602 ± 0.0028 |
| CAGTGTTAGG | 1 ± 0.034 |
| CAGTTAAGTA | 0.973 ± 0.028 |
| CAGTTAGAAA | 0.9952 ± 0.0075 |
| CAGTTCCCGG | 1.02 ± 0.063 |
| CAGTTCGTGT | 1.02 ± 0.022 |
| CAGTTGAACT | 1.0209 ± 0.00023 |
| CAGTTGACTC | 1 ± 0.072 |
| CAGTTGAGAA | 1.02 ± 0.011 |
| CAGTTGGACA | 0.967 ± 0.031 |
| CAGTTGGAGC | 0.981 ± 0.06 |

| Sequence | switch fluorescence ratio |
| --- | --- |
| CAGTTGGGAG | 1.01 ± 0.029 |
| CAGTTTAAGT | 0.993 ± 0.01 |
| CAGTTTTAGT | 1.01 ± 0.032 |
| CAGTTTTTGG | 0.992 ± 0.013 |
| CATAAAACGG | 1.0263 ± 8.3e-05 |
| CATAAAGAGT | 0.996 ± 0.01 |
| CATAAATGTT | 1.02 ± 0.016 |
| CATAACGTAC | 1.97 ± 0.21 |
| CATAAGATCC | 0.994 ± 0.025 |
| CATAAGTTAT | 1.02 ± 0.02 |
| CATAATGGTG | 1.02 ± 0.013 |
| CATACGTAGT | 1.01 ± 0.034 |
| CATACTTTTT | 1.02 ± 0.018 |
| CATAGAGTTG | 1.03 ± 0.084 |
| CATAGCCGGT | 1.012 ± 0.0031 |
| CATAGCGATA | 3.48 ± 0.28 |
| CATAGGCATT | 1.03 ± 0.016 |
| CATAGGCCGT | 1.03 ± 0.047 |
| CATAGGGCAG | 1.03 ± 0.012 |
| CATAGGGGCG | 0.984 ± 0.023 |
| CATAGTTGCG | 1.02 ± 0.04 |
| CATAGTTGTT | 1.025 ± 0.0018 |
| CATAGTTTTT | 1.02 ± 0.025 |
| CATATACGAG | 1.11 ± 0.015 |
| CATATCATAC | 1.079 ± 0.0078 |

| Sequence | switch fluorescence ratio |
| --- | --- |
| CATATCTAAG | 1.002 ± 0.0019 |
| CATATCTAGC | 0.997 ± 0.034 |
| CATATGATTT | 0.993 ± 0.019 |
| CATATGGGCG | 1.03 ± 0.064 |
| CATATTATGT | 1.02 ± 0.011 |
| CATCATTATA | 0.9866 ± 0.0079 |
| CATCCTTTTA | 1.054 ± 0.0037 |
| CATCGATGGT | 1.004 ± 0.0026 |
| CATCGATGTT | 1.025 ± 0.0064 |
| CATCGGCCGC | 1.0223 ± 0.00032 |
| CATCGGCGAT | 1.56 ± 0.038 |
| CATCGGGTAG | 0.996 ± 0.02 |
| CATCGTAATT | 1.07 ± 0.042 |
| CATCGTGACT | 0.994 ± 0.028 |
| CATCGTGCTG | 0.978 ± 0.052 |
| CATCGTGGTA | 1.04 ± 0.11 |
| CATCTATTTT | 1 ± 0.035 |
| CATCTCGTTT | 1.02 ± 0.042 |
| CATCTGGGCA | 1.03 ± 0.013 |
| CATCTGGTGC | 1.63 ± 0.19 |
| CATCTTCGCT | 1.0246 ± 7.4e-05 |
| CATCTTGAAA | 1.028 ± 0.0097 |
| CATGAAGGTA | 0.9566 ± 0.0087 |
| CATGAATGGG | 1.01 ± 0.032 |
| CATGAATTTT | 0.982 ± 0.047 |

| Sequence | switch fluorescence ratio |
| --- | --- |
| CATGACGGTT | 0.978 ± 0.046 |
| CATGAGGGGG | 1.01 ± 0.059 |
| CATGAGTTGG | 0.966 ± 0.041 |
| CATGATACGG | 1.03 ± 0.011 |
| CATGATGCTG | 1.01 ± 0.033 |
| CATGATGGAG | 0.999 ± 0.032 |
| CATGCGCTGG | 1.17 ± 0.13 |
| CATGCTGCGG | 0.999 ± 0.026 |
| CATGCTGGGC | 1.0235 ± 0.00067 |
| CATGCTGTA | 0.981 ± 0.025 |
| CATGGCCAGG | 1.06 ± 0.079 |
| CATGGCGAAG | 1 ± 0.034 |
| CATGGCGGAG | 1.03 ± 0.023 |
| CATGGGATGG | 1.01 ± 0.0074 |
| CATGGGGAAG | 1.02 ± 0.011 |
| CATGGGGCGC | 1.012 ± 0.0071 |
| CATGGGTTCG | 1 ± 0.0066 |
| CATGGGTTTG | 0.9923 ± 0.0031 |
| CATGGTTGGG | 0.984 ± 0.037 |
| CATGGTTTTG | 1 ± 0.023 |
| CATGTAATTG | 1.02 ± 0.015 |
| CATGTAGTA | 0.987 ± 0.028 |
| CATGTATGGG | 0.9833 ± 0.0095 |
| CATGTCTGCT | 0.9777 ± 0.0032 |
| CATGTGCGAG | 1.01 ± 0.021 |
